The term Km denotes the substrate concentration at which the rate is half of its maximum. A word on the kcat: it is the maximal rate divided by the concentration of active sites.

Drawing on PMC4143292, “An Enzymatic Platform for the Synthesis of Isoprenoid Precursors” (PLoS ONE, 2014), this text covers Km and kcat for 2 proteins.

Substrate in the series “purified protein”: CC(=O)O
Briefly: purified protein. Conditions: CoA 2.0 mM, ATP 4.0 mM, MgCl2 1.0 mM + nucleotide, KCl 50 mM, Hepes pH 8.0, 25 C, apparent.

Substrate in series [1]: CC(C)(COP(=O)(O)OP(=O)(O)OC[C@H]1O[C@@H](n2cnc3c(N)ncnc32)[C@H](O)[C@@H]1OP(=O)(O)O)[C@@H](O)C(=O)NCCC(=O)NCCS
Briefly: coupled NADH oxidation, progress curves. As to conditions: acetate 2.0 mM, ATP 4.0 mM, MgCl2 1.0 mM + nucleotide, KCl 50 mM, Hepes pH 8.0, 25 C, apparent. Format: biochemical, Saccharomyces cerevisiae.

Substrate in series [2]: C[C@@](O)(CCO)CC(=O)O
Briefly: PK/LDH-coupled NADH oxidation, progress curves. Format: biochemical, Staphylococcus aureus. As to conditions: ATP 5.0 mM, MgCl2 1.0 mM + nucleotide, KCl 50 mM, Hepes pH 8.0, 25 C, apparent. The text has this:
PK/LDH-coupled NADH oxidation, progress curves on MVK (mevalonate kinase)

B1: ACS (acetyl-CoA synthetase) (Saccharomyces cerevisiae S288C) (protein)
chain: MSPSAVQSSKLEEQSSEIDKLKAKMSQSAATAQQKKEHEYEHLTSVKIVPQRPISDRLQPAIATHYSPHLDGLQDYQRLHKESIEDPAKFFGSKATQFLNWSKPFDKVFIPDPKTGRPSFQNNAWFLNGQLNACYNCVDRHALKTPNKKAIIFEGDEPGQGYSITYKELLEEVCQVAQVLTYSMGVRKGDTVAVYMPMVPEAIITLLAISRIGAIHSVVFAGFSSNSLRDRINDGDSKVVITTDESNRGGKVIETKRIVDDALRETPGVRHVLVYRKTNNPSVAFHAPRDLDWATEKKKYKTYYPCTPVDSEDPLFLLYTSGSTGAPKGVQHSTAGYLLGALLTMRYTFDTHQEDVFFTAGDIGWITGHTYVVYGPLLYGCATLVFEGTPAYPNYSRYWDIIDEHKVTQFYVAPTALRLLKRAGDSYIENHSLKSLRCLGSVGEPIAAEVWEWYSEKIGKNEIPIVDTYWQTESGSHLVTPLAGGVTPMKPGSASFPFFGIDAVVLDPNTGEELNTSHAEGVLAVKAAWPSFARTIWKNHDRYLDTYLNPYPGYYFTGDGAAKDKDGYIWILGRVDDVVNVSGHRLSTAEIEAAIIEDPIVAECAVVGFNDDLTGQAVAAFVVLKNKSSWSTATDDELQDIKKHLVFTVRKDIGPFAAPKLIILVDDLPKTRSGKIMRRILRKILAGESDQLGDVSTLSNPGIVRHLIDSVKL
With B1, in “purified protein”, the Km worked out at 280 µM and the turnover number (kcat) came out at 10 s⁻¹. Moreover, in series [1], the Km was found to be 240 µM and the kcat was determined as 10 s⁻¹.

B2: MVK (mevalonate kinase) (Staphylococcus aureus) (protein)
chain: MTRKGYGESTGKIILIGEHAVTFGEPAIAVPFNAGKIKVLIEALESGNYSSIKSDVYDGMLYDAPDHLKSLVNRFVELNNITEPLAVTIQTNLPPSRGLGSSAAVAVAFVRASYDFLGKSLTKEELIEKANWAEQIAHGKPSGIDTQTIVSGKPVWFQKGQAETLKTLSLDGYMVVIDTGVKGSTRQAVEDVHKLCEDPQYMSHVKHIGKLVLRASDVIEHHNFEALADIFNECHADLKALTVSHDKIEQLMKIGKENGAIAGKLTGAGRGGSMLLLAKDLPTAKNIVKAVEKAGAAHTWIENLGG
notes: N-terminal His9-GST tag removed with PreScission protease; expressed in E. coli BL21(DE3)
Turning to B2, in series [2], the Km is 27 µM and the catalytic constant (kcat) came to 19 s⁻¹.
